In assay [1] the target is T1, AtcC-6His (SO_1846) (Shewanella oneidensis MR-1, UniProt Q8EFW9 1-298).
T1 construct: AtcC (SO_1846) of Shewanella oneidensis MR-1, 34 kDa; pBad33-AtcC was made by moving the insert of pET-AtcC, so both give AtcC with a C-terminal 6-His tag; also called AtcC with a 6His-tag; not shown: His6, C-terminal, kept
T1 sequence (looked up): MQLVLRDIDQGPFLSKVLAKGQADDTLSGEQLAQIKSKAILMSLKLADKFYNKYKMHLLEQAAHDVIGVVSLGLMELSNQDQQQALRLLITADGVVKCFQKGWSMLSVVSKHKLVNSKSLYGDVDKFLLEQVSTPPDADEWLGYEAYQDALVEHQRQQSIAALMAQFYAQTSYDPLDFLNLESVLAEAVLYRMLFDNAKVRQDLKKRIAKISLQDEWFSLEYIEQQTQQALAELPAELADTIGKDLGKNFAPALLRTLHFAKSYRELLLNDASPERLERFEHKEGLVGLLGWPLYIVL
Description: ITC; 25 °C, buffer B (50 mM Tris-HCl, 100 mM KCl, 10% glycerol, 1 mM DTT); 285 µM ligand titrated into 36 µM AtcC in the cell; one set of sites model. To be noted: both partners purified. (In general: ITC needs no label: the signal is the heat of the interaction.)

Assay [2] addresses DnaK-6His from S. oneidensis (Shewanella oneidensis MR-1, UniProt Q8EHT7 1-639). Put plainly: cell-based or functional assay.
For assay [3], the target named is T1, AtcC-6His (SO_1846). Description: pull-down. Particulars: both partners purified.

Chain of DnaK-6His from S. oneidensis (Q8EHT7 whole entry): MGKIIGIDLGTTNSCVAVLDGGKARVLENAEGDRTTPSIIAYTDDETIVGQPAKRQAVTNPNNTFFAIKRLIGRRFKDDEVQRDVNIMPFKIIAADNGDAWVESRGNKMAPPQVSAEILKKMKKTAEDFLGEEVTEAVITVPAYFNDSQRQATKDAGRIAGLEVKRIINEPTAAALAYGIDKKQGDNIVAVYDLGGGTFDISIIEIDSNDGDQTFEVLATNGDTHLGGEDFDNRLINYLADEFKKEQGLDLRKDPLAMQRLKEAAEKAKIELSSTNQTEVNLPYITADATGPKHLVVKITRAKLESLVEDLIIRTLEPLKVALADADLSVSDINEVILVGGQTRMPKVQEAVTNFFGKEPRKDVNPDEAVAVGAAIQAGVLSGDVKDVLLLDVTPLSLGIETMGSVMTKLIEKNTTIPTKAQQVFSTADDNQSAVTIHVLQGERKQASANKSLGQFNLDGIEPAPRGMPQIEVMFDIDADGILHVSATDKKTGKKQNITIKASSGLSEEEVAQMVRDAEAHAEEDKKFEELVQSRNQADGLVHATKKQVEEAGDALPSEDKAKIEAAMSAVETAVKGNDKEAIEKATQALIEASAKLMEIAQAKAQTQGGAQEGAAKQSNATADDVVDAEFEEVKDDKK

B1: AtcJ-6His (Adaptation to cold protein J, SO_1850) (natural protein, Shewanella oneidensis MR-1, UniProt Q8EFW5 1-94, looked up)
chain: MINHFSVLGIKPSAKEDDIKKAYRRLSNKYHPDKLLGASDEEKEQASQQLERVKKAYEVLSDPKLRNAFIRDFNNVIVTDPNSAMRELWDQFYP
notes: AtcJ (SO_1850) of Shewanella oneidensis MR-1, a 94-amino acid J-domain protein (J-domain 1-73 and a C-terminal extension of 21 amino acids); also called wild-type AtcJ; AtcJ-WT
For orientation: Kd means the equilibrium constant for the complex coming apart. Usually stoichiometry N stands for the number of molecules, sites or subunits per partner or assembly. On to B1, for which, in the assay with AtcC-6His (SO_1846) [1], the Kd was determined as 7 ± 2 nM and the “stoichiometry N” value amounted to 1. Besides, the “stimulation of the ATPase activity of DnaK in the presence of GrpE (2 µM) from S. oneidensis” value in assay [2] came out at 2.7 fold.

B2: pep21, synthetic peptide corresponding to the last 21 amino acids of AtcJ (peptide)
peptide: NNVIVTDPNSAMRELWDQFYP
notes: last 21 amino acids of AtcJ (SO_1850) of Shewanella oneidensis (94 amino acids; N74 is the first residue of the extension); The methods sentence says 'last 21 amino acids of AtcC'; results and legends say AtcJ; also called the peptide
The molecule B2 yielded a Kd in the assay with AtcC-6His (SO_1846) [1] of 80 ± 12 nM.

B3: Strep-AtcB (natural protein, Shewanella oneidensis MR-1, UniProt Q8EFW7 1-252, looked up)
chain: MNTSLIEITVAEIKELADVEPKQASKRFELIATTMNDEQLVEVIEKMDIVTLTQINSHHDISCPSIMSELMTPEQIRDIVCQQPLYWEEKIKNNAEELIQHTFDFLTYLIRIQDSEEKQTAILECIAEDPAGLFYLSIPFIEMMLGEGHDDEDHINDYYDDEEDTDTIGYDSRVASEEAHSFSLDDPRSLMALIHELAPDVEKAIKNLLRNESSGWETIINKFVNELVIQAKEKNQVTDEYAEVDDMFSFLD
notes: AtcB (SO_1848) of Shewanella oneidensis MR-1, 29 kDa; also called AtcB with a Strep-tag; purified AtcB
B3: the binding result with AtcC-6His (SO_1846) [3] was “binds”.

The values are drawn from article PMC6715715 (Communications Biology, 2019).
